PMC9954413 (Cancers, 2023)
Numbering of substitutions follows the chain as printed. Numbers in names are those of the source.

B1: UbcH13 (UBE2N) (enzyme, human)
chain: MAGLPRRIIKETQRLLAEPVPGIKAEPDESNARYFHVVIAGPQDSPFEGGTFKLELFLPEEYPMAAPKVRFMTKIYHPNVDKLGRICLDILKDKWSPALQIRTVLLSIQALLSAPNPDDPLANDVAEQWKTNEAQAIETARAWTRLYAMNNI
notes: human UbcH13 (UBE2N), E2 ubiquitin-conjugating enzyme; also called UbcH13 E2 enzyme
B2: Arkadia (RNF111) LONG, residues 876-994 (Ark LONG, 119 aa) (domain or fragment, human, UniProt Q6ZNA4 876-994, looked up)
chain: FRGNFEELIHLEERLGNVNRGASQGTIERCTYPHKYKKVTTDWFSQRKLHCKQDGEEGTEEDTEEKCTICLSILEEGEDVRRLPCMHLFHQVCVDQWLITNKKCPICRVDIEAQLPSES
notes: human Arkadia (RNF111), residues 876-994, 119 aa; RING domain with the non-RING elements; also called wt Ark LONG; source: expressed and purified as described elsewhere [31]
B3: Arkadia LONG R983A (domain or fragment)
chain: B2 chain with R108A
notes: human Arkadia (RNF111), residues 876-994, with R983A; also called Ark LONG R983A; source: site-directed mutagenesis; expressed and purified as the wild type
B4: Arkadia LONG R983K (domain or fragment)
chain: B2 chain with R108K
notes: human Arkadia (RNF111), residues 876-994, with R983K; also called Ark LONG R983K; source: site-directed mutagenesis; expressed and purified as the wild type
B5: Arkadia (RNF111) RING, residues 927-994 (Ark RING, 68 aa) (domain or fragment, human, UniProt Q6ZNA4 927-994, looked up)
chain: KQDGEEGTEEDTEEKCTICLSILEEGEDVRRLPCMHLFHQVCVDQWLITNKKCPICRVDIEAQLPSES
notes: human Arkadia (RNF111), residues 927-994, 68 aa; also called wt Ark RING; source: expressed and purified as described elsewhere [31]

Columns and labels:
Assay in all cases: ITC; 1-3 mM E2 in the syringe injected (2 uL, 15-19 injections) into 100-300 uM Arkadia polypeptide in the cell; 25 °C; 50 mM KH2PO4, 50 mM K2HPO4 pH 7; single-site model
Details in all cases: both partners purified
[1] = target: B5
[2] = target: B2
UbcH5B (UBE2D2) = target: T1, UbcH5B (UBE2D2) (human, UniProt P62837 1-147)
T1 construct: His6-tag cleaved with thrombin; also called wt UbcH5B; wt E2

UbcH13 (UBE2N) = target: B1
UbcH7 (UBE2L3) = target: T2, UbcH7 (UBE2L3) (human, UniProt P68036 1-154)
T2 construct: human UbcH7 (UBE2L3), E2 ubiquitin-conjugating enzyme; also called wt UbcH7; source: expressed and purified as described elsewhere [21,32]

UbcH7 K96S = target: T3, UbcH7 K96S (human, UniProt P68036 1-154, K96S)
T3 construct: human UbcH7 (UBE2L3) with K96S (KPA motif changed to SPA); also called mutant UbcH7; source: site-directed mutagenesis; expressed and purified as the wild type

B1
dH [1]: 3.4 kcal/mol | stoichiometry N [1]: 1.1 | dH [2]: -2.3 kcal/mol | stoichiometry N [2]: 0.9

B2
Kd (UbcH5B (UBE2D2)): 2.7 ± 0.5 µM | Kd (UbcH13 (UBE2N)): 51.9 ± 5 µM | Kd (UbcH7 (UBE2L3)): 4.3 ± 0.5 µM

B3
Kd (UbcH5B (UBE2D2)): 8.4 ± 0.4 µM

B4
Kd (UbcH5B (UBE2D2)): 5.5 ± 0.6 µM

B5
Kd (UbcH13 (UBE2N)): 264 ± 46 µM | Kd (UbcH7 (UBE2L3)): 27.3 ± 2 µM | Kd (UbcH7 K96S): 10.2 ± 0.6 µM
